pEC50: −log10 of the molar value.
Assays:
[1] = target: Aβ40 monomer (wild-type amyloid β peptide 1-40) (Artificial)
[2] = target: soluble cross-linked β-amyloid protein species (CAPS) prepared from Aβ40 (Artificial); assay: EuLISA, plate-immobilised CAPS
[3] = target: LC (Jto) fibrils, formed from recombinant Vλ6 Jto; assay: EuLISA, plate-immobilised LC fibrils
[4] = target: Aβ40 fibrils (Artificial); assay: EuLISA, plate-immobilised Aβ40 fibrils
[5] = target: Aβ40 monomer (wild-type amyloid β peptide 1-40) (Artificial); assay: EuLISA, plate-immobilised wild-type Aβ40 monomer
[6] = target: F19P Aβ40 monomer (Artificial); assay: EuLISA, plate-immobilised F19P Aβ40 monomer (value in brackets)

Substance | formation of SDS stable cross-linked Aβ40 oligomers (SDS PAGE) [1] [%] | pEC50 [2] | pEC50 [3] | pEC50 [4] | pEC50 [5] | pEC50 [6]
ImmunoPure Horseradish peroxidase (HRP) (from UniProt P00433) (enzyme) | 65 |  |  |  |  | 
unfractionated IGIV (Gammagard Liquid, human immune globulin intravenous) (polyclonal serum or antibody) |  | 6.20 | 5.82 | 5.96 | 6.06 | 5.43

From patent US20090246191A1
